Assays:
Protein A domain D [1] = experiment: BLI; conditions: chain shown with the change;; parent: 35.3 nM
Protein A domain D [2] = experiment: ELISA; conditions: chain shown with the change;; parent: 7.5 nM

Binder	Kd (Protein A domain D [1])	EC50 (Protein A domain D [2])
sdAb n501 R95A (protein) EVQLVESGGGLVQPGGSLRLSCAASDFTFRNYEMSWVRQAPGKGLEWVSSISGSGGSTYYAHSLKGRFTISRDNSKNTLYLQMNSLAAEDTAIYYCARLRDGFNNGFDYWGQGTLVTVSS	431 nM	404 nM
sdAb n501 Y67A (protein) EVQLVESGGGLVQPGGSLRLSCAASDFTFRNYEMSWVRQAPGKGLEWVSSISGSGGSTYAAHSLKGRFTISRDNSKNTLYLQMNSLRAEDTAIYYCARLRDGFNNGFDYWGQGTLVTVSS		162 nM
sdAb n501 S79A (protein) EVQLVESGGGLVQPGGSLRLSCAASDFTFRNYEMSWVRQAPGKGLEWVSSISGSGGSTYYAHSLKGRFTIARDNSKNTLYLQMNSLRAEDTAIYYCARLRDGFNNGFDYWGQGTLVTVSS	372 nM	245 nM
sdAb n501 G16A (protein) EVQLVESGGGLVQPAGSLRLSCAASDFTFRNYEMSWVRQAPGKGLEWVSSISGSGGSTYYAHSLKGRFTISRDNSKNTLYLQMNSLRAEDTAIYYCARLRDGFNNGFDYWGQGTLVTVSS	96.3 nM	92 nM
sdAb n501 T65A (protein) EVQLVESGGGLVQPGGSLRLSCAASDFTFRNYEMSWVRQAPGKGLEWVSSISGSGGSAYYAHSLKGRFTISRDNSKNTLYLQMNSLRAEDTAIYYCARLRDGFNNGFDYWGQGTLVTVSS	1030 nM	
sdAb n501 T77A (protein) EVQLVESGGGLVQPGGSLRLSCAASDFTFRNYEMSWVRQAPGKGLEWVSSISGSGGSTYYAHSLKGRFAISRDNSKNTLYLQMNSLRAEDTAIYYCARLRDGFNNGFDYWGQGTLVTVSS		200 nM
sdAb n501 N92A (protein) EVQLVESGGGLVQPGGSLRLSCAASDFTFRNYEMSWVRQAPGKGLEWVSSISGSGGSTYYAHSLKGRFTISRDNSKNTLYLQMASLRAEDTAIYYCARLRDGFNNGFDYWGQGTLVTVSS		151 nM
sdAb n501 K72A (protein) EVQLVESGGGLVQPGGSLRLSCAASDFTFRNYEMSWVRQAPGKGLEWVSSISGSGGSTYYAHSLAGRFTISRDNSKNTLYLQMNSLRAEDTAIYYCARLRDGFNNGFDYWGQGTLVTVSS	1360 nM	685 nM
sdAb n501 S18A (protein) EVQLVESGGGLVQPGGALRLSCAASDFTFRNYEMSWVRQAPGKGLEWVSSISGSGGSTYYAHSLKGRFTISRDNSKNTLYLQMNSLRAEDTAIYYCARLRDGFNNGFDYWGQGTLVTVSS	136 nM	709 nM

From publication PMC12572175
